Results: patent US20240117030A1 (Pfizer, published 2024)
Positions count from the first letter of the chain named. Values belong to the binder of their own block, whether it stands above or below them.

Legend:
[1] = molecular target: T1, recombinant human IL-33 (human, UniProt O95760 112-270, limits assumed); test: cell-based or functional assay
T1 sequence (looked up): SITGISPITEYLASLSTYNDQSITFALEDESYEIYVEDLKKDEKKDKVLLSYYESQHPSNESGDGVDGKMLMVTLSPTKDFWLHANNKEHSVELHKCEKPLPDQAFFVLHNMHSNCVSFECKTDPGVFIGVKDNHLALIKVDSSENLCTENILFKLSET

[2] = molecular target: recombinant human IL-13 (human, UniProt P35225 35-146); test: cell-based or functional assay
recombinant human IL-13, sequence (P35225 35-146 limits assumed): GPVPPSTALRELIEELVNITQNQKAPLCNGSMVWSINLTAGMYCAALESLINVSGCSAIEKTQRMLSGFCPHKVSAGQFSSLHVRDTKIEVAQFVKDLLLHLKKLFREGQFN

IC50 (mean), HEK-Blue IL-33 SEAP [1]: 42.9 pM
B1: IL33-158-152 (antibody, human IgG1, kappa, V domains shown)
VH: EVQLVESGGGLVQPGGSLRLSCAASGFTFSSYWMYWVRQAPGKGLEWVAAITPNAGEDYYPESVKGRFTISRDNAKNSLYLQMNSLRAEDTAVYYCARGHYYYTSYSLGYWGQGTLVTVSS
VL: DIQMTQSPSSLSASVGDRVTITCKASQNINKHLDWYQQKPGKAPKLLIYFTNNLQTGVPSRFSGSGSGTDFTLTISSLQPEDFATYYCFQYNQGWTFGGGTKVEIKR

IC50 (mean), HEK-Blue IL-33 SEAP [1]: 8.27 pM
B2: IL33-0726 (antibody, human IgG1, kappa, V domains shown)
VH: B1 VH with H100Q, S105K
VL: B1 VL with K24R, N28P, N30H, K31N, T51G, N52K, T56E, N92K, Q93K, T96S

IC50 (median), Monocyte CD23 expression [2]: 306 pM
IC50 (median), STAT6 phosphorylation in HT-29 cells [2]: 140 pM
B3: IL13-1307 (antibody, human IgG1, kappa, V domains shown)
VH: EVQLVESGGGLVQPGGSLRLSCAASGFTFSSYAMSWVRQAPGKGLEWVASISSGDTTYYPDSVKGRFTISRDNAKNSLYLQMNSLRAEDTAVYYCARLDGYYFGFPYWGQGTLVTVSS
VL: DIQMTQSPSSLSASVGDRVTITCKASESVDHSGSSLMHWYQQKPGKAPKLLIYRASNLESGVPSRFSGSGSGTDFTLTISSLQPEDFATYYCQQSNEDPWTFGGGTKVEIKR
